Experimental data from article PMC10128069, “A Fijivirus Major Viroplasm Protein Shows RNA-Stimulated ATPase Activity by Adopting Pentameric and Hexameric Assemblies of Dimers” (mBio, 2023).

Legend:
[1] = target: P9-1 (Mal de Rio Cuarto virus (MRCV)) (UniProt D9U542); assay: competition EMSA; details: 10 mM Tris-HCl, 50 mM KCl, 0.5 mM EDTA, 10% glycerol, 1 mM DTT, pH 7.5; 30 min at room temperature; 6.5% native PAGE at 4 C
crystal structure = target: the molecule itself; assay: crystal structure
SEC-MALS = target: the molecule itself; assay: SEC-MALS
SAXS = target: the molecule itself; assay: SAXS
cryo-EM structure = target: the molecule itself; assay: cryo-EM structure
P9-1 = P9-1 (Mal de Rio Cuarto virus (MRCV), UniProt D9U542 1-337); assay: EMSA; 5 uM probe; concentration-dependent, 1, 3, 6 uM protein; 10 mM Tris-HCl, 50 mM KCl, 0.5 mM EDTA, 10% glycerol, 1 mM DTT, pH 7.5; 30 min at room temperature; 6.5% native PAGE at 4 C; details: protein: recombinant; tags: N-terminal 52-residue tag (6xHis/Xpress/EK); label: 5'-HEX; single strand

**Q.** For poly(A), average 250 nt, which binding signal (fold decrease of ssDNA complex) [1] is on record?
**A.** Its binding signal (fold decrease of ssDNA complex) is 10.

B1: P9-1ΔC-arm (residues 1 to 313 of MRCV P9-1, lacking the 24 C-terminal residues) (domain or fragment)
chain: MADLERRTFGSYKIEEITIKNDQQQKTTNQQQISNNEQRISTKKIPILDDGIFDLINYLLNGTHFDKTHYCGFDYSHLPTLERDFNTASNYVSENYSIIVEEIDLNKYERSESISLKSPDFTVVLEYFKKHVEGQTEQEENKTESTSSELPAKIVRELPLLPIMCRESEDSISEDILEGEGAVIQVLKMFMKGFLVHLGENPNSYDRQLTIEKYRPLLISIIGYEFTVGTRATHTKINHIYYQLATFDNYPFDLLRFQLQSLIDTPNVIKERIEKDGLFKVITTTNARGQYQSVLLRGINGSESYLNLKRYRK
notes: source: E. coli BL21, purified (IMAC on Ni-NTA, SEC on Superdex 200); not shown: His6, N-terminal, kept
**Q.** Which results are given for B1?
**A.** stoichiometry N (crystal structure): 2; stoichiometry N (SEC-MALS): ~2.3 protomers

B2: P9-1 major viroplasm protein of mal de Río Cuarto virus (MRCV), full-length, expressed in E. coli from pRSET (natural protein)
chain: MADLERRTFGSYKIEEITIKNDQQQKTTNQQQISNNEQRISTKKIPILDDGIFDLINYLLNGTHFDKTHYCGFDYSHLPTLERDFNTASNYVSENYSIIVEEIDLNKYERSESISLKSPDFTVVLEYFKKHVEGQTEQEENKTESTSSELPAKIVRELPLLPIMCRESEDSISEDILEGEGAVIQVLKMFMKGFLVHLGENPNSYDRQLTIEKYRPLLISIIGYEFTVGTRATHTKINHIYYQLATFDNYPFDLLRFQLQSLIDTPNVIKERIEKDGLFKVITTTNARGQYQSVLLRGINGSESYLNLKRYRKFKVRVVGNVDNVIKNDFSSLKLDV
notes: source: E. coli BL21, purified (IMAC on Ni-NTA, SEC on Superdex 200); copies: 10 or 12
**Q.** Which “stoichiometry N” value (SAXS) does the source give for B2 here?
**A.** The value was 10.

**Q.** What about the “stoichiometry N” value (cryo-EM structure) of the same molecule?
**A.** Its value is 12.

**Q.** And the “stoichiometry N” value (SEC-MALS)?
**A.** The value was ~10.4 protomers.

**Q.** Does GACCTCGCTCTCTGTTTCTCAT (ssDNA) [22-nt HEX-ssDNA probe] bind (P9-1)?
**A.** Result: binds
